# Results as given in US20190275125A1.
# Where two headings read alike, the source gives them in different places.
# B1: abeta 1-12 trimer construct, P05067 672-683; P05067 672-683; P05067 672-683 (peptide)
# peptide: DAEFRHDSGYEVGGGGGGGGDAEFRHDSGYEVGGGGGGGGDAEFRHDSGYEV
# modifications: not checked
# Assays:
# Experiment in all cases: MSD inhibition assay, abeta 1-28 coated plates
# [1] = target: Biosimilar (BS) bapineuzumab
# [2] = target: Biosimilar (BS) bapineuzumab; remark: listed apart in the source
# [3] = target: Biosimilar (BS) bapineuzumab; remark: listed apart in the source
# Biosimilar (BS) bapineuzumab, sequence (chain, as listed by the source, chain 1 of 2): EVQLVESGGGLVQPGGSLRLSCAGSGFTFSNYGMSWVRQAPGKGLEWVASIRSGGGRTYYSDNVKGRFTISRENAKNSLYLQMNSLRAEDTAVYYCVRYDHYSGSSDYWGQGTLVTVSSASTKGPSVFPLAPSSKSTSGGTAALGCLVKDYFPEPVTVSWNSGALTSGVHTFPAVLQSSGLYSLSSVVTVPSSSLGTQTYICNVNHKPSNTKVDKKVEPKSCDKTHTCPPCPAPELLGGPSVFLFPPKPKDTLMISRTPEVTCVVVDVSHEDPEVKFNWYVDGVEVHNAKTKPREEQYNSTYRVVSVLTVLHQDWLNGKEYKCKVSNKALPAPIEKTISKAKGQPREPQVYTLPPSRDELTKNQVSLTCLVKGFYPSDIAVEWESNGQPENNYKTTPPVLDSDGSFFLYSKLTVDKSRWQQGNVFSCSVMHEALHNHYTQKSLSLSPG
# Biosimilar (BS) bapineuzumab, sequence (chain, as listed by the source, chain 2 of 2): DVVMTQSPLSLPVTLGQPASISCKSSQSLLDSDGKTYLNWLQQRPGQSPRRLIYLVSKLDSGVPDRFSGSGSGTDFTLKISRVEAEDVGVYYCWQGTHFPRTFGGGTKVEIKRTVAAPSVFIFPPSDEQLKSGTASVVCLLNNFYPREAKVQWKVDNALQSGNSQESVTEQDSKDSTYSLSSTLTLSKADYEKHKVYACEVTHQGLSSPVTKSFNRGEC
binder,measurement,setting,value
B1,IC50,[1],19 nM
same,IC50,[2],10 to 40 nM
same,IC50,[3],10 nM
